Patent publication US20260250402A1 (C O INMAGENE PTE, published 2026)
Where a chain is given by its changes, count along the chain named. Read-outs that look alike come from different tables or passages of the source. Each block holds one molecule with its values, some of them ahead of it.

Legend:
[1] = target: cynomolgus IL-7Ra expressed on CHOK1-cyno IL-7Ra cells (cynomolgus) (UniProt Q38IC7); assay: flow cytometry, CHOK1-cyno IL-7Ra cells; negative control
[2] = target: human IL-7Ra expressed on CHOK1-human IL-7Ra cells (human) (UniProt P16871); assay: flow cytometry, CHOK1-human IL-7Ra cells; negative control
[3] = target: T1, cynomolgus Fc-tag IL-7Ra protein (cynomolgus, UniProt Q38IC7 21-240); assay: ELISA, cynomolgus Fc-tag IL-7Ra protein, HRP-labelled secondary antibody, OD 450 (right panel)
T1 construct: also called cynomolgus IL-7Ra protein; not shown: Fc tag
T1 sequence: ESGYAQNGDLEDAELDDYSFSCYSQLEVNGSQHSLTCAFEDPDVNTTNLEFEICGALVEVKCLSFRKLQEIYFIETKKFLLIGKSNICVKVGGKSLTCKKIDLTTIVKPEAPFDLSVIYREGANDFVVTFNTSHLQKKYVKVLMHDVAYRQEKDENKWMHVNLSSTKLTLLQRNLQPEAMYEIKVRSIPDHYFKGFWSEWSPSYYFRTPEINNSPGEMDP

[4] = target: T2, human IL-7Ra expressed on CHOK1-human IL-7Ra cells (human, UniProt P16871 21-459); assay: flow cytometry blocking assay: binding of hIL-7-his (0.1 ug/ml) to CHOK1-human IL-7Ra cells in the presence of the antibody, anti-His Alexa Fluor 488, MFI (left panel)
T2 construct: also called human IL-7Ra expressed on cell membrane; CD127
T2 sequence: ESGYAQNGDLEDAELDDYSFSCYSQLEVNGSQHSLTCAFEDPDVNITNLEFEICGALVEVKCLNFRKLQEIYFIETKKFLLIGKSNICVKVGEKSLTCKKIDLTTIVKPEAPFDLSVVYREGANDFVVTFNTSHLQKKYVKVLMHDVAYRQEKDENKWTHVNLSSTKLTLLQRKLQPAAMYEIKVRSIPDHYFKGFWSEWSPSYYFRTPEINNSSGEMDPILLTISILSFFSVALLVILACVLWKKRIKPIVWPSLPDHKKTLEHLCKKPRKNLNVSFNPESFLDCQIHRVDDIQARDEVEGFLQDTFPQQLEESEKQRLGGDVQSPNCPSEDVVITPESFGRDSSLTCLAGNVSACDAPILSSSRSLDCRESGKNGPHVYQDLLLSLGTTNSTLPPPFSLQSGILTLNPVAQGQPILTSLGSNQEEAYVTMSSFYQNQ

[5] = target: T3, cynomolgus IL-7Ra expressed on CHOK1-cyno IL-7Ra cells (cynomolgus, UniProt Q38IC7 21-459); assay: flow cytometry on CHOK1-cyno IL-7Ra cells, MFI (upper right panel)
T3 sequence: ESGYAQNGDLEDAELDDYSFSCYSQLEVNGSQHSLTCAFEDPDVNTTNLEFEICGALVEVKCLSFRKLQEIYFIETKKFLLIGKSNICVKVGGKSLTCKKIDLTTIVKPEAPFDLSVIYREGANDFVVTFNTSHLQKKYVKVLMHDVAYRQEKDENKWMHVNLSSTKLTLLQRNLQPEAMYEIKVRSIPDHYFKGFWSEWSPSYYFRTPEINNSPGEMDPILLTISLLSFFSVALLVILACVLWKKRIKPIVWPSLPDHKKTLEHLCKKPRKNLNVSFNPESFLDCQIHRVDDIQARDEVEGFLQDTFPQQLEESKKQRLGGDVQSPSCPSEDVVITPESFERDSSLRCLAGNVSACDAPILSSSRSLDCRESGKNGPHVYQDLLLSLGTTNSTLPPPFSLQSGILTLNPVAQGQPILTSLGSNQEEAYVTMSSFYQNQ

[6] = target: T4, human Fc-tag IL-7Ra protein (human, UniProt P16871 21-239); assay: ELISA, plate coated with human Fc-tag IL-7Ra protein, HRP-labelled secondary antibody, OD 450 (left panel)
T4 construct: also called human IL-7Ra protein; not shown: Fc tag fused to the N-terminus
T4 sequence: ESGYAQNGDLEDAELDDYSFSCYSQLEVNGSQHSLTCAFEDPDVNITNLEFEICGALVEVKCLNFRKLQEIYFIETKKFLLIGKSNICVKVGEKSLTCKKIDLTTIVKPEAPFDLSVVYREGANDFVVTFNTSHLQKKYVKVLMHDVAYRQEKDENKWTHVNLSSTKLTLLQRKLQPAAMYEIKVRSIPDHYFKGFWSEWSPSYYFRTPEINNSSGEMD

[7] = target: T2, human IL-7Ra expressed on CHOK1-human …; assay: flow cytometry, CHOK1-human IL-7Ra cells
[8] = target: T5, Human his-tag IL-7Ra protein (human, UniProt P16871 21-239); assay: SPR Biacore 8K, antibody Fc-captured, human his-tag IL-7Ra analyte, 1:1 model
T5 construct: Construct not described; Position of the tag unknown; also called IL-7Ra (Biacore analyte); not shown: his tag
T5 sequence: T4 sequence

[9] = target: T3, cynomolgus IL-7Ra expressed on …; assay: flow cytometry, CHOK1-cyno IL-7Ra cells
[10] = target: T2, human IL-7Ra expressed on CHOK1-human …; assay: flow cytometry on CHOK1-human IL-7Ra cells, MFI (upper left panel)
[11] = target: T2, human IL-7Ra expressed on CHOK1-human …; assay: flow cytometry blocking assay: binding of hIL-7-his to CHOK1-human IL-7Ra cells in the presence of the antibody, MFI (right panel)
[12] = target: T2, human IL-7Ra expressed on CHOK1-human …; assay: flow cytometry blocking assay: binding of hIL-7-his (0.1 ug/ml) to CHOK1-human IL-7Ra cells in the presence of the antibody, anti-His Alexa Fluor 488, MFI (right panel)
[13] = target: T3, cynomolgus IL-7Ra expressed on …; assay: flow cytometry on CHOK1-cyno IL-7Ra cells, MFI (upper right panel); remark: listed apart in the source
[14] = target: T2, human IL-7Ra expressed on CHOK1-human …; assay: flow cytometry on CHOK1-human IL-7Ra cells, MFI (upper left panel); remark: listed apart in the source

EC50 [1]: 32.2 µg/mL | Top (MFI) [1]: 93.7 MFI | EC50 [2]: 6.8 µg/mL | Top (MFI) [2]: 73 MFI
Molecule: isotype hIgG4 antibody (negative control)

EC50 (read off the curve) [3]: ~0.04 µg/mL | EC50 (read off the curve) [5]: ~0.3 µg/mL | EC50 (read off the curve) [6]: ~0.02 µg/mL | EC50 [7]: 0.0842 µg/mL | Top (MFI) [7]: 22400 MFI | Kd [8]: 0.143 nM | koff [8]: 0.000234 s⁻¹ | kon [8]: 1.64e+06 M⁻¹ s⁻¹ | EC50 [9]: 0.134 µg/mL | Top (MFI) [9]: 18400 MFI | EC50 (read off the curve) [10]: ~0.2 µg/mL
B2: cmAb011 (chimeric Ab011) (antibody, V domains shown)
VH: QVQLQQSGAELMRPGASVTLSCKTSGYRFTDYELHWVKQTPVRGLEWIGGIDPKTGGTAYNQKFKGKAILTSDRSSSTTYMELRSLASEDSAVYYCTRSGGRWYFDVWGTGTTVTVSS
VL: DIVLTQSPASLAVSLGQRATISCRTSESVSIHLLHLMHWYQQKPGQPPKLLIYGASNLESGVPARFSGSGSETDFTLNIHPVEEEDAATYFCQQSIKDPYTFGGGTKLEIKR
notes: also called chimeric antibody Ab011

IC50 (read off the curve) [11]: ~0.1 µg/mL | EC50 [7]: 0.0326 µg/mL | Top (MFI) [7]: 24400 MFI | Kd [8]: 0.18 nM | koff [8]: 0.000292 s⁻¹ | kon [8]: 1.63e+06 M⁻¹ s⁻¹ | EC50 [9]: 0.0325 µg/mL | Top (MFI) [9]: 16300 MFI
B7: HuAb013 (antibody, V domains shown)
VH: QVQLVQSGAEVKKPGASVKVSCKASGYRFTDYELHWVRQAPGQGLEWMGGIDPKTGGTAYNQKFKGKVTLTSDRSTSTVYMELSSLRSEDTAVYYCARSGGRWYFDVWGQGTTVTVSS
VL: DIVLTQSPASLAVSPGQRATITCRTSESVSIHLLHLMHWYQQKPGQPPKLLIYGASNLESGVPARFSGSGSGTDFTLTINPVEAEDTANYYCQQSIKDPYTFGGGTKVEIK
notes: Humanized version of cmAb011; also called humanized VL1 / humanized VH4

EC50 (read off the curve) [3]: ~0.03 µg/mL | IC50 (read off the curve) [12]: ~0.07 µg/mL | EC50 (read off the curve) [5]: ~0.3 µg/mL | EC50 (read off the curve) [6]: ~0.02 µg/mL | EC50 [7]: 0.387 µg/mL | Top (MFI) [7]: 24300 MFI | Kd [8]: 0.385 nM | koff [8]: 0.000252 s⁻¹ | kon [8]: 656000 M⁻¹ s⁻¹ | EC50 (read off the curve) [13]: ~0.1 µg/mL | EC50 [9]: 0.51 µg/mL | Top (MFI) [9]: 19100 MFI | EC50 (read off the curve) [10]: ~0.2 µg/mL | EC50 (read off the curve) [14]: ~0.08 µg/mL
B8: OSE127 (Tab2) (antibody, human IgG4 S228P, kappa, V domains shown)
VH: QVQLVESGGGLVKPGGSLRLSCAVSGFTLSDYYMAWIRQAPGKGLEWVSTISASGLRTYYPDSVKGRFTISRDNAKNSLYLQMNSLRAEDTAVYYCARPLSAHYGFNYFDYWGQGTLVTVSS
VL: DIQMTQSPSSLSASVGDRVTITCRTSEDIYQGLAWYQQKPGKAPKLLLYSANTLHIGVPSRFSGSGSGTDYTLTISSLQPEDFATYYCQQYYDYPLAFGGGTKVEIKR
notes: also called benchmark antibody OSE127

Second part, the molecule before the results:

B1: ADX-914 (Tab1) (antibody, human IgG1, kappa, V domains shown)
VH: EVQLVESGGGLVQPGRSLRLSCAASGFTFDDHAMHWVRQAPGKGLEWVSGISWNSRGIGYADSVKGRFTIFRDNAKNSLYLQMNSLRAEDTALYYCAKDEYSRGYYVLDVWGQGTTVTVSS
VL: AIQLTQSPSSLSASVGDRVTITCRASQGISSALAWYQQKPGKAPKLLIYDASSLESGVPSRFSGSGSGTDFTLTISSLQPEDFATYYCQQFNSYPLWITFGQGTRLEIKR
notes: also called benchmark antibody ADX-914
EC50 (read off the curve) [3]: ~0.03 µg/mL | IC50 (read off the curve) [4]: ~0.1 µg/mL | EC50 (read off the curve) [5]: ~0.2 µg/mL | EC50 (read off the curve) [6]: ~0.01 µg/mL | EC50 [7]: 0.31 µg/mL | Top (MFI) [7]: 26000 MFI | Kd [8]: 0.258 nM | koff [8]: 0.000297 s⁻¹ | kon [8]: 1.15e+06 M⁻¹ s⁻¹ | EC50 [9]: 0.289 µg/mL | Top (MFI) [9]: 20800 MFI | EC50 (read off the curve) [10]: ~0.1 µg/mL

B3: HuAb008 (antibody, V domains shown)
VH: B7 VH with K67R, L70M
VL: DIVLTQSPDSLAVSLGERATINCRTSESVSIHLLHLMHWYQQKPGQPPKLLIYGASNLESGVPDRFSGSGSETDFTLTISSLQAEDVAVYYCQQSIKDPYTFGGGTKVEIK
notes: Humanized version of cmAb011; also called humanized VL4 / humanized VH2
EC50 [7]: 0.171 µg/mL | Top (MFI) [7]: 20400 MFI | Kd [8]: 0.118 nM | koff [8]: 0.00031 s⁻¹ | kon [8]: 2.64e+06 M⁻¹ s⁻¹ | EC50 [9]: 0.221 µg/mL | Top (MFI) [9]: 17600 MFI

B4: HuAb004 (antibody, V domains shown)
VH: B7 VH with K67R, L70M, S72R, R74T
VL: B3 VL
notes: Humanized version of cmAb011; also called humanized VL4 / humanized VH1
EC50 [7]: 0.2 µg/mL | Top (MFI) [7]: 21500 MFI | Kd [8]: 0.181 nM | koff [8]: 0.00029 s⁻¹ | kon [8]: 1.6e+06 M⁻¹ s⁻¹ | EC50 [9]: 0.206 µg/mL | Top (MFI) [9]: 16200 MFI

B5: HuAb003 (antibody, V domains shown)
VH: B7 VH with K67R, L70M, S72R, R74T
VL: B3 VL with L4M, E72G
notes: Humanized version of cmAb011; also called humanized VL3 / humanized VH1
EC50 [7]: 0.21 µg/mL | Top (MFI) [7]: 21700 MFI | Kd [8]: 0.212 nM | koff [8]: 0.000342 s⁻¹ | kon [8]: 1.61e+06 M⁻¹ s⁻¹ | EC50 [9]: 0.239 µg/mL | Top (MFI) [9]: 16100 MFI

B6: HuAb009 (antibody, V domains shown)
VH: B7 VH with R38K, M48I, K67R, L70M
VL: B7 VL
notes: Humanized version of cmAb011; also called humanized VL1 / humanized VH3
EC50 [7]: 0.0719 µg/mL | Top (MFI) [7]: 20900 MFI | Kd [8]: 0.188 nM | koff [8]: 0.000267 s⁻¹ | kon [8]: 1.42e+06 M⁻¹ s⁻¹ | EC50 [9]: 0.0711 µg/mL | Top (MFI) [9]: 16600 MFI
